Experimental data from patent US20130108642A1 (LOS ANGELES BIOMEDICAL RESEARCH INSTITUTE AT HARBOR UCLA …, published 2013).

B1: CotH3 (RO3G-11882), native protein in cell wall material from supernatants of R. oryzae germling protoplasts (other)
chain: ASIKFNVIAPNATDVKVSVNGQQVTLTASDANVPYFTGSAEVGASKTYKYVAGGTEESFDRSLDGITNSTLNDFYNRPVTYANLPQLPWPIEKDPQWTRSGSKADIFDDNYIPSVFFHGDDSQVQNVVKNVPADRISGTLTFIGSNYVYSFQNVSFGIHGAGKKHNNAKQSWNWILSGSDTMGNRNFFKLRHMEEDPTQIRERLYSDILHAMGTYANDATMVRLFINNQGFGTFNMLDDITQFSYINAKFYNGKPPATLGPLYDGASGADFLYHPGNLDGYSSWVANTANPNGEAYEALDPLCKAWNETTYTDNTAIANFEKMFDLDRFMRFMVIEYLTADWDGYWMGQTNDGAYRDPTDNNKWYFLDQDFDGTFGVNLAAPEGNAFLDVSYKDFPSRYPGAVMINNLLQNADKKATFEKYLTETVRVLFNNVTLTNRVLALHNFLLPDLEWDRSIVQQSPGINFGWTFDQVTQNLWQGVTAPNNNGGGAAFGLVEYIAAKAQAVAKEFNISIVSQPVGPPSANGTTAAAPAPAAGNSTGKGGNQSISSSASSNKTSAQSTS
notes: Protein on the FAR Western blot, identified by MALDI-TOF-MS/MS of excised bands; also called R. oryzae ligand; R. oryzae surface protein
B2: CotH2 (RO3G-08029), native protein in cell wall material from supernatants of R. oryzae germling protoplasts (other)
chain: ASVQFNLIAPSATDVKVSVNGQQVALTASDPNVPYFTGSAEVGGTEESFERSLAGITNSTFNDFYNRPVTYANLPQLPWPIENDPQWTRKGKKAEIFDDNYIPSVFFHGDDSQVQDLVKNVPKDKVTGTLTFIGSNYVHSFANVSFGIHGAGKKHNNAKQSWKWTLSGTDTMGNRNHFKLRHMEEDPTQIRERLYADILHAMGTYANETTMVRLFINGQGFGTFNMLDDITEFSYINAMFYGGNPPATLGPLFDGASGADFIYHPGNLDGYSSWKPNKDNANGEGYEAFDPLCKAWNETDYTDNTAIANFEKMFDTEHFLRFMVIEYLTAHWDGYWMGQTNDGAYRDPSDNNKWYFLDQDFDATFGVNLDVPENKDFISVSYKDFPSRYPAGVMANGLLQNADKKAKFEQYLTETVRVLFNNVTLTNRVLAIHNFLSPDLEWDRSIVQQSPGTNFGWTFEQTSQNLWQGVSAPNNNGGGAEWGLVEYIAAKSQAMAKEFNITIVSEPVGPPAANGTATSTNDGGNTHTAAGESKPASSSESSGSKIASQSVS
notes: as for B1
B3: CotH1 (RO3G-05018) from R. oryzae, on the cell surface of S. cerevisiae (other)
chain: AKVSFKVIAPDAKNRVHVNINGVLVELKASDPDVPYYTGFAELKHGQSYNYVVDGNAEPFKRLLNGSSTKNEFFNRPVTYATNIPELPSILTEGSWTRGDTSNPIWDSNYVPSIFVTGNPREMNELIENVKKNTYKTKITFIGPETINTFEGCTLGLHKPGRKHNDAKQSWIWALPEGQFMANRNWFKIRHMEEDPTQLREKLYADILRKMGTYANEANMVRFFINKEGMGIFNMLDDVIMYSYINAMFYHGDTPEQLGGLYDGASGASFNFPGDFDSFIPNVESPLDQDAIEPFSKAFTSIDFLEDEQVKTIGKYFDYDQFLRFMVMEFLTGDWDGYWQEQTNDGAYIDINDHNKIYYLGQDFDATFGVNLEQKREFVNVSYTEYPKLFPGGVLINRLLQNPGVKKTFENYLKITVQEIFNNATLGPYVTARHEFLAPDLQWDRSIKQRSPGNIFGWTFEQTYENLFEGVTAPGKNSGGADWGLLEWVAAKEKAVKSYLSSSEAADAATVTQVPEAPGTDGTPSESTAWPHANTRFRQAEASNTHKIGTSSPSNFIVKIKQGTVSS
notes: also called S. cerevisiae expressing CotH1

Experiments:
[1] = molecular target: T1, recombinant human Grp78 (human, UniProt P11021 19-654); experiment: FAR Western blot with recombinant human Grp78 and anti-Grp78 Ab; bands identified by MALDI-TOF-MS/MS
T1 construct: Soluble probe in the FAR Western blot, detected with anti-Grp78 Ab; also called rGrp78; Grp78p
T1 sequence (P11021 19-654 limits assumed): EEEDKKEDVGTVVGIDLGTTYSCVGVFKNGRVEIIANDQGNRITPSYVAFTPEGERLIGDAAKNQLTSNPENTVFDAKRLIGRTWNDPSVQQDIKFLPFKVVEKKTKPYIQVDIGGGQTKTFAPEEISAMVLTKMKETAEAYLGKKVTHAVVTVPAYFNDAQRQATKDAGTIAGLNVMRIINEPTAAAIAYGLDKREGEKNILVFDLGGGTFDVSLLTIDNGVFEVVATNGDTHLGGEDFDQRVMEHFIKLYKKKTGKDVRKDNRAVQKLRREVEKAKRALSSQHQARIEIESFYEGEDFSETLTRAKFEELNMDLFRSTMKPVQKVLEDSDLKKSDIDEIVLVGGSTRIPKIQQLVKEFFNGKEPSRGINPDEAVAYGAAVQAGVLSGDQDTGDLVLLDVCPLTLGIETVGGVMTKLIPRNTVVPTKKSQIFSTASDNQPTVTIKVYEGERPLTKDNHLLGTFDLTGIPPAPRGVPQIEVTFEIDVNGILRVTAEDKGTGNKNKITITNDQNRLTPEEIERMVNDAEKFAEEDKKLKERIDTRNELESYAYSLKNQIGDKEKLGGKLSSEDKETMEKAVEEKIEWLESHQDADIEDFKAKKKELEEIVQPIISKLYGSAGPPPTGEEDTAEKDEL

[2] = molecular target: T2, endothelial cell surface GRP78 (human umbilical vein endothelial cells) (human, UniProt P11021 19-654); experiment: pull-down of biotin-labeled endothelial cell surface proteins by yeast cells, immunoblot with anti-GRP78 Ab
T2 construct: whole, on cells; In the adherence and endocytosis assays it is on intact endothelial cells; also called endothelial cell GRP78; Glucose Regulated Protein 78
T2 sequence (P11021 19-654): as the sequence (P11021 19-654 limits assumed) above

Binder | binding result [1] | binding result [2]
B1 | binds | –
B2 | binds | –
B3 | – | no binding
